# ± gives the standard deviation of the averaged measurements.
# Tested on: ATP
# Test: switch fluorescence ratio, 500 uM ATP over buffer (Cy3 cluster intensity, sum of 5 cycles each) (fold (ratio)); higher = stronger signal-on switching upon ATP binding; sequences stand for … in TCGTCGGCAGCGTCAGATGTGTATAAGAGACAGTTTTTTTTTTTTTTTTTTTTTTTTT…TC
# Conditions: aptamer strand: ATP DNA aptamer (quencher-CACCTGGGGGAGTATTGCGGAGGAAGG + anchor), 100 nM annealed; ATP concentration: 500 uM
# How it was run: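 Five buffer/ATP imaging cycles were run on Cy3-labelled switching-strand clusters on a modified Illumina MiSeq flow-cell, with NaOH stripping and re-annealing between cycles. In each cycle, clusters annealed to 100 nM quencher-labelled ATP aptamer were imaged in selection buffer, then after 15 min with 500 uM ATP at 22 °C. Per cluster, the fluorescence ratio is summed target-cycle over summed buffer-cycle Cy3 intensity, averaged per switch-domain sequence. Only clusters within 100-1000 RFU were kept.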
# 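Further: ATP exposure 15 min at 22 °C before imaging.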
row,Sequence,switch fluorescence ratio
1,GTGGTTGCGG,0.987 ± 0.04
2,GTGGTTTGGT,0.979 ± 0.035
3,GTGGTTTGTG,1 ± 0.011
4,GTGTAACGTT,1 ± 0.042
5,GTGTAAGTAG,0.997 ± 0.024
6,GTGTACCCGT,0.96 ± 0.035
7,GTGTACGGTG,1.01 ± 0.013
8,GTGTAGGCTT,1 ± 0.015
9,GTGTAGGGGT,0.9779 ± 0.0083
10,GTGTATATAC,0.993 ± 0.013
11,GTGTATGCAA,1.03 ± 0.029
12,GTGTATGGGG,0.968 ± 0.063
13,GTGTATGTTG,0.9976 ± 0.0067
14,GTGTATTGGG,0.993 ± 0.025
15,GTGTCATTTT,0.991 ± 0.025
16,GTGTCCACAG,1 ± 0.014
17,GTGTCTCCAG,1.03 ± 0.049
18,GTGTGAAATC,0.987 ± 0.043
19,GTGTGAAGGT,0.991 ± 0.032
20,GTGTGACAGA,1.01 ± 0.014
21,GTGTGACTTC,0.988 ± 0.018
22,GTGTGATGTG,0.9681 ± 0.0051
23,GTGTGCAGGG,0.945 ± 0.031
24,GTGTGCCAGC,0.969 ± 0.013
25,GTGTGCCGGG,0.97 ± 0.0043

row,Sequence,switch fluorescence ratio
1,GTGTGCCTGG,0.985 ± 0.055
2,GTGTGCTGCA,1.03 ± 0.092
3,GTGTGTAATT,1.01 ± 0.059
4,GTGTGTTCTT,1.014 ± 0.008
5,GTGTTAACCT,1.25 ± 0.045
6,GTGTTAACGG,0.982 ± 0.017
7,GTGTTAGAAG,0.9749 ± 0.0015
8,GTGTTAGCGA,0.997 ± 0.045
9,GTGTTAGTAC,0.984 ± 0.056
10,GTGTTATAGT,0.993 ± 0.024
11,GTGTTATCGG,1 ± 0.045
12,GTGTTATTTA,0.977 ± 0.046
13,GTGTTCCGTG,1.01 ± 0.015
14,GTGTTCGGTA,0.9704 ± 0.0062
15,GTGTTGAACG,1.04 ± 0.071
16,GTGTTGAGGC,0.974 ± 0.05
17,GTGTTGAGGT,0.984 ± 0.022
18,GTGTTTACGA,0.984 ± 0.027
19,GTGTTTACTT,1.01 ± 0.021
20,GTGTTTATGA,1.06 ± 0.053
21,GTGTTTCTAT,1 ± 0.013
22,GTGTTTGTGG,0.966 ± 0.033
23,GTGTTTGTGT,0.983 ± 0.028
24,GTGTTTGTTG,0.989 ± 0.029
25,GTGTTTTAGC,1.009 ± 0.0098

row,Sequence,switch fluorescence ratio
1,GTGTTTTCAG,0.988 ± 0.03
2,GTGTTTTCCA,0.985 ± 0.036
3,GTGTTTTGAA,1.01 ± 0.022
4,GTGTTTTTGG,0.983 ± 0.022
5,GTTAAAAAAT,1.06 ± 0.17
6,GTTAAAGATT,1.001 ± 0.0083
7,GTTAAAGCAT,1.01 ± 0.03
8,GTTAAAGGGC,1.03 ± 0.034
9,GTTAAGGGGC,0.996 ± 0.017
10,GTTAATGGGG,0.986 ± 0.054
11,GTTACATGTT,0.993 ± 0.024
12,GTTACCAGGT,1.16 ± 0.097
13,GTTACGGGGT,0.975 ± 0.024
14,GTTACTATTT,1.01 ± 0.019
15,GTTACTCTGA,1.055 ± 0.0083
16,GTTACTGTGG,0.9663 ± 0.005
17,GTTACTTGAG,0.9985 ± 0.005
18,GTTAGAATGG,0.981 ± 0.017
19,GTTAGCCGAA,1.05 ± 0.032
20,GTTAGCGAAG,1 ± 0.019
21,GTTAGGAGAA,0.9807 ± 0.0092
22,GTTAGGGCGT,1.01 ± 0.011
23,GTTAGGGGG,1.02 ± 0.023
24,GTTAGGGTTT,0.996 ± 0.024
25,GTTAGTAGGT,0.994 ± 0.021

row,Sequence,switch fluorescence ratio
1,GTTAGTGGTT,1.02 ± 0.015
2,GTTAGTGTTT,1.01 ± 0.013
3,GTTAGTTTGG,1 ± 0.015
4,GTTATAAGGA,0.988 ± 0.019
5,GTTATACGGG,1.01 ± 0.024
6,GTTATCAGAG,0.977 ± 0.021
7,GTTATCGGCG,1.01 ± 0.022
8,GTTATGAGTC,1.02 ± 0.03
9,GTTATGCGCC,1.02 ± 0.028
10,GTTATGGGTA,0.989 ± 0.025
11,GTTATTAGAG,0.987 ± 0.026
12,GTTATTCATT,1.004 ± 0.0034
13,GTTATTGCTC,1.12 ± 0.19
14,GTTATTGCTT,0.98 ± 0.068
15,GTTATTGTAT,0.977 ± 0.014
16,GTTATTTGCT,0.988 ± 0.02
17,GTTATTTTAG,0.988 ± 0.037
18,GTTATTTTCG,0.987 ± 0.028
19,GTTATTTTGA,1.01 ± 0.017
20,GTTCAAACGG,0.967 ± 0.018
21,GTTCAACTCA,0.993 ± 0.012
22,GTTCCCGGGA,1.028 ± 0.0024
23,GTTCCGCCTG,1.094 ± 0.0043
24,GTTCCGGGGT,1.05 ± 0.05
25,GTTCCTCGCT,2.77 ± 0.33

row,Sequence,switch fluorescence ratio
1,GTTCGCGGGG,1.06 ± 0.12
2,GTTCGGAATT,1.031 ± 0.0013
3,GTTCGGCGAT,1.03 ± 0.013
4,GTTCGGGCAT,1.07 ± 0.026
5,GTTCGGGGTA,0.995 ± 0.031
6,GTTCTCATTT,0.995 ± 0.025
7,GTTCTGAGGT,1 ± 0.0014
8,GTTCTTCAGA,0.9705 ± 0.0056
9,GTTCTTGAAA,0.977 ± 0.036
10,GTTCTTTGT,0.9894 ± 0.0093
11,GTTGAACCGG,0.988 ± 0.02
12,GTTGAATATG,1.01 ± 0.029
13,GTTGACGGTA,1.01 ± 0.015
14,GTTGACTCAT,0.97827 ± 0.00051
15,GTTGAGAGTG,1 ± 0.049
16,GTTGAGCGTC,0.955 ± 0.032
17,GTTGAGGGGG,1.01 ± 0.047
18,GTTGAGGGGT,0.993 ± 0.027
19,GTTGATTCTA,0.988 ± 0.034
20,GTTGATTTGC,1.02 ± 0.089
21,GTTGATTTTT,0.982 ± 0.018
22,GTTGCAAAAA,1.18 ± 0.32
23,GTTGCACTGG,1.01 ± 0.011
24,GTTGCAGTCA,0.949 ± 0.042
25,GTTGCATTCA,1.01 ± 0.033

row,Sequence,switch fluorescence ratio
1,GTTGCGAGGG,1.02 ± 0.016
2,GTTGCTAGTA,1 ± 0.011
3,GTTGCTATGA,1.02 ± 0.017
4,GTTGCTGTCA,1.06 ± 0.043
5,GTTGGAATCG,0.991 ± 0.018
6,GTTGGAATTT,0.966 ± 0.023
7,GTTGGACTGG,1.01 ± 0.037
8,GTTGGAGCAT,1.086 ± 0.0023
9,GTTGGAGGCG,0.969 ± 0.049
10,GTTGGATGGT,0.964 ± 0.019
11,GTTGGATTAG,0.993 ± 0.017
12,GTTGGCATTA,1.03 ± 0.023
13,GTTGGGAAGA,1.01 ± 0.034
14,GTTGGGAGCA,1.004 ± 0.0072
15,GTTGGGAGGT,0.982 ± 0.015
16,GTTGGGATTC,0.986 ± 0.049
17,GTTGGGGCGT,0.97 ± 0.044
18,GTTGGGGGAA,0.983 ± 0.023
19,GTTGGGGTAA,0.9927 ± 0.0067
20,GTTGGGGTGG,1.04 ± 0.12
21,GTTGGGTACT,0.998 ± 0.037
22,GTTGGGTTCC,1.02 ± 0.02
23,GTTGGGTTCT,1.03 ± 0.021
24,GTTGGGTTGC,0.999 ± 0.018
25,GTTGGTAATT,0.987 ± 0.015

row,Sequence,switch fluorescence ratio
1,GTTGGTATGA,0.989 ± 0.017
2,GTTGGTATT,1.01 ± 0.024
3,GTTGGTCCTT,0.9928 ± 0.003
4,GTTGGTCGGG,1.02 ± 0.037
5,GTTGGTGTGT,0.9667 ± 0.0071
6,GTTGTAATGG,1.01 ± 0.049
7,GTTGTAGCTC,1 ± 0.023
8,GTTGTAGTGT,1.011 ± 0.0011
9,GTTGTATCAT,0.98846 ± 0.00088
10,GTTGTATTGT,0.999 ± 0.019
11,GTTGTCAATG,0.974 ± 0.021
12,GTTGTCATGT,0.991 ± 0.017
13,GTTGTCCGGG,1 ± 0.027
14,GTTGTGGTCA,0.9771 ± 0.0067
15,GTTGTGGTTG,0.987 ± 0.035
16,GTTGTGTGAT,0.982 ± 0.027
17,GTTGTGTGTT,0.975 ± 0.016
18,GTTGTTGAGG,0.999 ± 0.012
19,GTTGTTGGGG,0.974 ± 0.043
20,GTTGTTGTTG,0.996 ± 0.045
21,GTTTAACCCG,1.002 ± 0.0033
22,GTTTAAGCGG,0.969 ± 0.034
23,GTTTAAGGGG,1.005 ± 0.0068
24,GTTTAATGTT,1.023 ± 0.0022
25,GTTTAATTGA,0.9676 ± 0.0018

row,Sequence,switch fluorescence ratio
1,GTTTACAAGT,0.992 ± 0.027
2,GTTTACGGGG,0.997 ± 0.041
3,GTTTACTGAA,1.01 ± 0.018
4,GTTTACTTAG,1.024 ± 0.005
5,GTTTACTTAT,1.037 ± 0.0024
6,GTTTAGAATT,1.004 ± 0.01
7,GTTTAGGGGG,0.994 ± 0.018
8,GTTTATAAAG,0.9899 ± 0.0023
9,GTTTATCTGC,1.02 ± 0.025
10,GTTTATGCAG,0.968 ± 0.017
11,GTTTATGTAC,1.07 ± 0.065
12,GTTTATTCGG,0.981 ± 0.019
13,GTTTCCAGGG,1.16 ± 0.023
14,GTTTCCGTTG,0.98414 ± 0.00058
15,GTTTCGCAGG,1.01 ± 0.015
16,GTTTCGCGGT,1.04 ± 0.067
17,GTTTCTGTGT,0.956 ± 0.012
18,GTTTGAGACG,0.903 ± 0.044
19,GTTTGAGGGA,0.982 ± 0.035
20,GTTTGAGTTG,1.01 ± 0.038
21,GTTTGATAAA,0.981 ± 0.034
22,GTTTGATGAA,0.994 ± 0.084
23,GTTTGCGTAT,1.02 ± 0.048
24,GTTTGGAGAA,1.01 ± 0.034
25,GTTTGGCTTT,1.015 ± 0.0012

# Source: the supplement of paper PMC10126150
